The chains are these.
B1: 1-31 (antibody, V domains shown)
VH: EVQLLESGGGLVQPGGSLRLSCAASGFTFSSYAMNWVRQAPGKGLEWVSAISGSGGSTFYADSVKGRFTISRDNSKNTLYLQMNSLRAEDTAVYYCTRPPYGDYGDYWGQGTLVTVSS
VL: QSALTQPASVSGSPGQSITISCTGTSSDVGKYNLVSWYQQHPGKAPKLMIYEGSQRPSGVSNRFSGSKSGNTASLTISGLQAEDEADYYCCSYAGSRTPVVFGGGTKLTVL
B2: 1-47 (antibody, V domains shown)
VH: EVQLLESGGGLVQPGGSLRLSCAASGFTFSSQAMSWVRQAPGKGLEWVSAISGSGGGTYYADSVKGRFTISRDNSKNTLYLQMNSLRAEDTAVYYCAKDRRFGEFDPWGQGTLVTVSS
VL: B1 VL with D28G, K31S, S54I, Q55K, R97S, T98S, P99F
notes: also called variant 1-47
B3: 1-10 (antibody, V domains shown)
VH: EVQLLESGGGLVQPGGSLRLSCAASGFTFSSYDMSWVRQAPGKGLEWVSVISGSGGSTYYADSVKGRFTISRDNSKNTLYLQMNSLRAEDTAVYYCAKGPLVGWYFDLWGQGTLVTVSS
VL: B1 VL with D28N, K31S, S54T, Q55K, R97S, T98S, P99F
notes: also called variant 1-10
B4: 1-7 (antibody, V domains shown)
VH: B3 VH
VL: B1 VL with V29F, K31S, S54N, Q55K, R97S, P99F
notes: also called variant 1-7
B5: 1-17 (antibody, V domains shown)
VH: EVQLLESGGGLVQPGGSLRLSCAASGFTFSSYAMYWVRQAPGKGLEWVSAISGSAGSTYYADSVKGRFTISRDNSKNTLYLQMNSLRAEDTAVYYCARDTNDFWSGYSIFDPWGQGTLVTVSS
VL: QSALTQPASVSGSPGQSITISCTGTSSDIGSYNLVSWYQQHPGKAPKLMIYEGTKRPSGVSNRFSGSKSGNTASLTISGLQAEDEADYYCCSYAGSRTYVFGGGTKLTVL
notes: also called variant 1-17
B6: 1-42 (antibody, V domains shown)
VH: EVQLLESGGGLVQPGGSLRLSCAASGVTFSSYAMSWVRQAPGKGLEWVSAITGSGGSTYYADSVKGRFTISRDNSKNTLYLQMNSLRAEDTAVYYCAKHGSGTIFGVVIAKYYFDYWGQGTLVTVSS
VL: B5 VL with I29V, S31R, T54G, G95S, R97S, Y99L
notes: also called variant 1-42
B7: 1-23 (antibody, V domains shown)
VH: EVQLLESGGGLVQPGGSLRLSCAASGFTFSSYAISWVRQAPGKGLEWVSIISGSGGSTYYADSVKGRFTISRDNSKNTLYLQMNSLRAEDTAVYYCAREGYRDYLWYFDLWGQGTLVTVSS
VL: QSALTQPASVSGSPGQSITISCTGTSNDVGSYNLVSWYQQHPGKAPKLMIYEGNKRPSGVSNRFSGSKSGNTASLTISGLQAEDEADYYCCSYAGSYTVFGGGTKLTVL
notes: also called variant 1-23
B8: 1-24 (antibody, V domains shown)
VH: B7 VH with I34M, S35N
VL: B7 VL with N27S, S31Y, S96G, Y97S, T98V
notes: also called variant 1-24
B9: 1-28 (antibody, V domains shown)
VH: EVQLLESGGGLVQPGGSLRLSCAASGFTFSSYGMSWVRQAPGKGLEWVSAISGSGGGTYYADSVKGRFTISRDNSKNTLYLQMNSLRAEDTAVYYCASSSSWQFDYWGQGTLVTVSS
VL: B1 VL with D28G, K31S, R97S, P99H, V100Y
B10: 1-4 (antibody, V domains shown)
VH: B2 VH
VL: B1 VL with K31T, R97S, T98S, P99F
B11: 4-119 (antibody, V domains shown)
VH: EVQLVESGGGLVQPGGSLRLSCAASGFAFSSYAMGWFRQAPGKEREWVATINGDDYTYYADSVKGRFTISADNSKNTAYLQMNSLKPEDTAVYYCVATPGGYGLWGQGTLVTVSS
B12: 4-139 (antibody, V domains shown)
VH: EVQLVESGGGLVQPGGSLRLSCAASGGGTFGSYAMGWFRQAPGKEREFVAAISIASGASGGTTNYADSVKGRFTISADNSKNTAYLQMNSLKPEDTAVYYCATTMNPNPRWGQGTLVTVSS
B13: 4-124 (antibody, V domains shown)
VH: EVQLVESGGGLVQPGGSLRLSCAASGNIFTRNVMGWFRQAPGKEREFVAAITSSGSTNYADSVKGRFTISADNSKNTAYLQMNSLKPEDTAVYYCARPSSDLQGGVDYWGQGTLVTVSS
B14: 4-147 (antibody, V domains shown)
VH: EVQLVESGGGLVQPGGSLRLSCAASGGTFSVYAMGWFRQAPGKEREGVAAISMSGDDAAYADSVKGRFTISADNSKNTAYLQMNSLKPEDTAVYYCAKISKDDGGKPRGAFFDSWGQGTLVTVSS

Numbering of substitutions follows the chain as printed.

In the first assay the target is T1, SARS-CoV-2 Spike Glycoprotein S1 (subunit 1) (SARS-CoV-2, UniProt P0DTC2 16-685).
T1 construct: also called S1 Monomer; SARS-CoV-2 S1
The experiment in a line: column Inhibitor IC50 (assay not explained).
What is called IC50 is the concentration that gives 50% inhibition. Read a low IC50 as greater potency in that assay. Take B1: the IC50 came out at 9.2 nM.

For another assay, the target named is T2, COVID S1 RBM Fc fusion (Antigen 2) (SARS-CoV-2, UniProt P0DTC2 437-508).
T2 construct: domain: RBM
The experiment in a line: phage ELISA.
On to B2, for which the “ELISA fold over background” value stood at 0.9 fold over background.
The same measure, in the same setting: the same measure for B3: 1.1 fold over background; for B4: 1.6 fold over background.
For the molecule B5, the “ELISA fold over background” value was 1.3 fold over background.
B6: the “ELISA fold over background” value was determined as 1 fold over background.
As to B7, the “ELISA fold over background” value came to 1.6 fold over background.
In the case of B8, the “ELISA fold over background” value was determined as 1.3 fold over background.

The next assay concerns the target T3, COVID S1 RBD Fc fusion (Antigen 1) (SARS-CoV-2, UniProt P0DTC2 319-541).
T3 construct: domain: RBD
The experiment in a line: phage ELISA. A general note: In an ELISA, binding on a coated surface is turned into a signal by an enzyme label.
Consider B2, for which the “ELISA fold over background” value amounted to 5.5 fold over background.
With B3, the “ELISA fold over background” value was found to be 17.4 fold over background.
Still for that read-out and setting: the same measure for B4: 3.3 fold over background.
In the case of B5, the “ELISA fold over background” value amounted to 20.1 fold over background.
As for B6, the “ELISA fold over background” value came out at 20.8 fold over background.
With B7, the “ELISA fold over background” value worked out at 3.6 fold over background.
In the case of B8, the “ELISA fold over background” value was 11 fold over background.

The next assay addresses T4, S1-Fc (SARS-CoV-2, UniProt P0DTC2 16-685). The experiment in a line: phage ELISA.
Turning to B2, the “ELISA fold over background” value was 1.2 fold over background.
In the case of B3, the “ELISA fold over background” value is 1.3 fold over background.
For B4, the “ELISA fold over background” value amounted to 1.7 fold over background.
B5: the “ELISA fold over background” value is 1.6 fold over background.
B6: the “ELISA fold over background” value was found to be 1.4 fold over background.
Still for that read-out and setting: for B7 the value was 1.6 fold over background; for B8, 1.1 fold over background.

For a further assay, the target named is T1, SARS-CoV-2 Spike Glycoprotein S1 …. The experiment in a line: ELISA binding titration.
One may read the EC50 as the midpoint of the concentration-response curve. The molecule B9 showed an EC50 of 2.28 nM.
B1 gave an EC50 of 0.203 nM.
Still for that read-out and setting: the same measure for B10: 2.56 nM.

A further assay addresses T5, SARS-CoV-2 S1 (antigen of the Carterra SPR kinetics) (SARS-CoV-2, UniProt P0DTC2 16-685). The experiment in a line: Carterra SPR.
The term koff denotes the first-order rate constant of dissociation. Lower therefore signals slow dissociation. The term kon denotes a measure of how fast the partners come together. The molecule B2 returned a koff of 0.24 s⁻¹ and a kon of 6320 M⁻¹ s⁻¹.
For the molecule B3, the koff was 0.147 s⁻¹ and the kon amounted to 1.04e+06 M⁻¹ s⁻¹.
Consider B4, for which the koff amounted to 0.17 s⁻¹ and the kon came out at 1.34e+06 M⁻¹ s⁻¹.
B5 registered a kon of 3.92e+08 M⁻¹ s⁻¹.
On to B6, for which the kon amounted to 9.1e+08 M⁻¹ s⁻¹.
Consider B7, for which the koff was 0.159 s⁻¹ and the on-rate (kon) is 506000 M⁻¹ s⁻¹.
Molecule B8 yielded a kon of 1.94e+08 M⁻¹ s⁻¹.

Another assay deals with T1, SARS-CoV-2 Spike Glycoprotein S1 …. The assay is described as follows: column DC/S1 (format not explained).
One may read the Kd as the equilibrium constant for the complex coming apart. Turning to B9, the Kd worked out at 520 nM.
As to B1, binding was characterised by a dissociation constant (Kd) of 14.4 nM.
In the case of B10, binding was put at a Kd of 659 nM.

The target is the same in a further assay. The experiment in a line: screening phage ELISA, mean.
Take B9: the “ELISA (Avg)” value was 17.7.
Regarding B1, the “ELISA (Avg)” value came to 20.7.
On the same count and under the same terms, the same measure for B10: 20.6.

In another assay the target is T5, SARS-CoV-2 S1 (antigen of the Carterra …). The assay is described as follows: Carterra SPR. This is another data set of the same source.
B2: binding was put at a Kd of 38000 nM, the dissociation rate constant (koff) was 0.24 s⁻¹ and the kon is 6320 M⁻¹ s⁻¹.
Consider B3, for which the Kd was determined as 142 nM, the koff is 0.147 s⁻¹ and the kon turned out to be 1.04e+06 M⁻¹ s⁻¹.
For B4 the same measures were 127 nM, 0.17 s⁻¹ and 1.34e+06 M⁻¹ s⁻¹.
B5 registered a Kd of 67.1 nM and a kon of 3.92e+08 M⁻¹ s⁻¹.
B6 showed a Kd of 113 nM and a kon of 9.1e+08 M⁻¹ s⁻¹.
Molecule B7 showed a Kd of 315 nM, a koff of 0.159 s⁻¹ and a kon of 506000 M⁻¹ s⁻¹.
B8: the affinity, expressed as Kd, was 75.5 nM and the kon worked out at 1.94e+08 M⁻¹ s⁻¹.

The target in the next assay is T1, SARS-CoV-2 Spike Glycoprotein S1 …. The experiment in a line: column Fc/S1 (format not explained).
With B9, the dissociation constant Kd amounted to 3240 nM.
B1 displayed a Kd of 17.5 nM.
As to B10, the Kd was determined as 25.5 nM.

For the next assay, the target named is T2, COVID S1 RBM Fc fusion (Antigen 2). The experiment in a line: phage ELISA. This is another data set of the same source.
As to B2, the “ELISA fold over background” value was determined as 0.9 fold over background.
Regarding B3, the “ELISA fold over background” value was determined as 1.1 fold over background.
Same read-out and setting: for B4 the value was 1.6 fold over background; for B5, 1.3 fold over background.
Same read-out and setting: for B6 the value was 1 fold over background.
For the molecule B7, the “ELISA fold over background” value is 1.6 fold over background.
On the same count and under the same terms, for B8 the value was 1.3 fold over background.

Another assay concerns the target T3, COVID S1 RBD Fc fusion (Antigen 1). The experiment in a line: phage ELISA. The source holds these as a separate data set.
For the molecule B2, the “ELISA fold over background” value was determined as 5.5 fold over background.
On the same count and under the same terms, for B3 the value was 17.4 fold over background; for B4, 3.3 fold over background; for B5, 20.1 fold over background.
For B6, the “ELISA fold over background” value was 20.8 fold over background.
Regarding B7, the “ELISA fold over background” value came to 3.6 fold over background.
Still for that read-out and setting: the same measure for B8: 11 fold over background.

In another assay the target is T4, S1-Fc. The assay is described as follows: phage ELISA. This is another data set of the same source.
As for B2, the “ELISA fold over background” value is 1.2 fold over background.
On to B3, for which the “ELISA fold over background” value came to 1.3 fold over background.
The same measure, in the same setting: the same measure for B4: 1.7 fold over background; for B5: 1.6 fold over background; for B6: 1.4 fold over background.
Take B7: the “ELISA fold over background” value worked out at 1.6 fold over background.
As to B8, the “ELISA fold over background” value is 1.1 fold over background.

The target in another assay is human ACE2 (human, UniProt Q9BYF1 18-740).
Chain of human ACE2 (Q9BYF1 18-740 limits assumed): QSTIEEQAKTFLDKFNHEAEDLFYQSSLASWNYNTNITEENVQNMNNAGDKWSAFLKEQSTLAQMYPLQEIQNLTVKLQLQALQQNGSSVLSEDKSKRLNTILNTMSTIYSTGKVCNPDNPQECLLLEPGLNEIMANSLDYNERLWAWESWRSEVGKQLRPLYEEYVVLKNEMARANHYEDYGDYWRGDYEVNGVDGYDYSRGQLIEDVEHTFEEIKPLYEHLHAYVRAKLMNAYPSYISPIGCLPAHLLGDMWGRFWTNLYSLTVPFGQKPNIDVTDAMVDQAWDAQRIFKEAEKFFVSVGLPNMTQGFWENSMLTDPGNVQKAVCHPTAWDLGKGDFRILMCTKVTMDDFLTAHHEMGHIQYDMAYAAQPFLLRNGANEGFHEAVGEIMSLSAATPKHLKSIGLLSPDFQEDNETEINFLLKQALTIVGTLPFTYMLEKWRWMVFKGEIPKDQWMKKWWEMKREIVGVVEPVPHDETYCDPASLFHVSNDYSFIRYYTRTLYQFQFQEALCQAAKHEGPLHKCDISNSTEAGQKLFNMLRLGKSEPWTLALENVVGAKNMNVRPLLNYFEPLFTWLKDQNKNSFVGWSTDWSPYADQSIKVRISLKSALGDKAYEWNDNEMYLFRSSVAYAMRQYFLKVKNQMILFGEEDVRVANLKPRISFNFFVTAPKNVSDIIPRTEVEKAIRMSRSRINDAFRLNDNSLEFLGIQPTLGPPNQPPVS
Experiment: not given
In turn, B11 had an IC50 of 4.37 nM.
For the molecule B12, the midpoint of inhibition, the IC50, lay at 20.2 nM.
Consider B13, for which the midpoint of inhibition, the IC50, lay at 54.4 nM.
In the case of B14, it took 68.3 nM to reach half-maximal inhibition (IC50).

A further assay concerns the target T1, SARS-CoV-2 Spike Glycoprotein S1 …. The assay is described as follows: screening phage ELISA, mean. This is another data set of the same source.
For the molecule B9, the “ELISA (Avg)” value was 17.7.
On to B1, for which the “ELISA (Avg)” value is 20.7.
As to B10, the “ELISA (Avg)” value stood at 20.6.

The record behind these values is patent publication US20210395344A1 (TWIST BIOSCIENCE, published 2021).
